# Numbering of substitutions follows the chain as printed.
# T1: cynomolgus monkey FcγRIIa1 extracellular domain, C-terminal His-tag (cynomolgus monkey)
# T1 construct: also called cyno FcγRIIa1; cynoFcgRIIa1
# T1 chain: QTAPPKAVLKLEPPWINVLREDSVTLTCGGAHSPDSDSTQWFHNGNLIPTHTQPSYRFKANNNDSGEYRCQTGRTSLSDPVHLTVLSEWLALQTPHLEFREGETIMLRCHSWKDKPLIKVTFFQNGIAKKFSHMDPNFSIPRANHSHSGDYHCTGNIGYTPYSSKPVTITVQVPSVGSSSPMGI
# T2: cynomolgus monkey FcγRIIa2 extracellular domain, C-terminal His-tag (cynomolgus monkey)
# T2 construct: also called cyno FcγRIIa2; cynoFcgRIIa2
# T2 chain: T1 chain with P95T, T121A, I127K, A128S, K130N, D135N, R142Q
# T3: cynomolgus monkey FcγRIIa3 extracellular domain, C-terminal His-tag (cynomolgus monkey)
# T3 construct: also called cyno FcγRIIa3; cynoFcgRIIa3
# T3 chain: T1 chain with P95T, T121A, A128S, H133P, D135N
# T4: cynomolgus monkey FcγRIIb extracellular domain, C-terminal His-tag (cynomolgus monkey)
# T4 construct: also called cyno FcγRIIb; cynoFcγRIIb
# T4 chain: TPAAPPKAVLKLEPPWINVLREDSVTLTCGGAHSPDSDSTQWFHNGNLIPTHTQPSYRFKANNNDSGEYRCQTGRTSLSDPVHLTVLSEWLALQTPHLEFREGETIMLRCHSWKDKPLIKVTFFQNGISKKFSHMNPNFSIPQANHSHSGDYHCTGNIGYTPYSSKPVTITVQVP
# T5: cynomolgus monkey FcγRIIIaS extracellular domain, C-terminal His-tag (cynomolgus monkey, UniProt Q8SPW2 21-206 at identity 1.00))
# T5 construct: also called cyno FcγRIIIaS; cynoFcγRIIIaS
# T5 chain: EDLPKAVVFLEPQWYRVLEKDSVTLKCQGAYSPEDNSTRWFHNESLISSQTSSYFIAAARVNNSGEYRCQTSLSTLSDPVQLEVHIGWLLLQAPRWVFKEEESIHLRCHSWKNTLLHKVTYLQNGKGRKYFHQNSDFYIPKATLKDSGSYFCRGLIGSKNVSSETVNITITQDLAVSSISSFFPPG
# T6: human FcγRIIaH extracellular domain, C-terminal His-tag (human, UniProt P12318 34-217)
# T6 construct: also called human FcγRIIa (type H); FcgRIIaH
# T6 sequence: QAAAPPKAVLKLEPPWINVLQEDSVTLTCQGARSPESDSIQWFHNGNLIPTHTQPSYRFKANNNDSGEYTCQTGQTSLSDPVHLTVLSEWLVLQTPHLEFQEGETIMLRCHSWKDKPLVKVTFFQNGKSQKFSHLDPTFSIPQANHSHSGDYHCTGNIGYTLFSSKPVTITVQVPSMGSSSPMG
# T7: human FcγRIIaR extracellular domain, C-terminal His-tag (human, UniProt P12318 34-217)
# T7 construct: also called human FcγRIIa (type R); FcgRIIaR
# T7 chain: T6 sequence with H134R
# T8: human FcγRIIb extracellular domain, C-terminal His-tag (human, UniProt P31994 43-217)
# T8 construct: also called human FcgRIIb; FcgRIIb
# T8 sequence: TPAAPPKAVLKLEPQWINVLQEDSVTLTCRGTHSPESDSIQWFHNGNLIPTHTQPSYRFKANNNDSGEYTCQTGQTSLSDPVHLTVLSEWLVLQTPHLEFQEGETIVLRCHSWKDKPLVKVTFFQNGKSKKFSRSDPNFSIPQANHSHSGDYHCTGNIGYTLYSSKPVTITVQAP
# B1: M103205H795-MY198/M103202L889-SK1 (antibody, human IgG1, kappa)
# heavy: QVTLKESGPVLVKPTETLTLTCTVSGIDLSHDDISWVRQAPGKGLEWVGIISYAGSTYYASWAKGRLTISKDTSKNQVVLTMTNMDPVDTATYYCARGVPAYSHGGDLWGQGTLVTVSSASTKGPSVFPLAPSSKSTSGGTAALGCLVKDYFPEPVTVSWNSGALTSGVHTFPAVLQSSGLYSLSSVVTVPSSSLGTQTYICNVNHKPSNTKVDKKVEPKSCDKTHTCPPCPAPELLNGPVVFLFPPKPKDTLMISRTPEVTCVVVDVSDEDPEVKFNWYVDGVEVHNAKTKPREEQYNSTYRVVSVLTVLHQDWLNGKEYKCKVSNKALPKPIEKTISKAKGQPREPQVYTLPPSREEMTKNQVSLTCLVKGFYPSDIAVEWESNGQPENNYKTTPMVLDSDGSFFLYSKLTVDKSRWQQGNVFSCSVMHEALHNHYTQKSLSLSP
# light: DIVMTQSPATLSLSPGERATLSCTSSQSVYHANWLSWFQQKPGQPPKLLIYWASTLAYGVPSRFSGSGSGTDFTLTISSLQPEDAATYYCAGGYGGGRYAFGQGTKVEIKRTVAAPSVFIFPPSDEQLKSGTASVVCLLNNFYPREAKVQWKVDNALQSGNSQESVTEQDSKDSTYSLSSTLTLSKADYEKHKVYACEVTHQGLSSPVTKSFNRGEC
# notes: Substitutions introduced into M103205H795-SG1; expressed with M103202L889-SK1 as light chain
# B2: M103205H795-MY204/M103202L889-SK1 (antibody, human IgG1, kappa)
# heavy: B1 heavy with D270E, Q297L, M398P
# light: B1 light
# notes: as for B1
# B3: M103205H795-MY202/M103202L889-SK1 (antibody, human IgG1, kappa)
# heavy: B1 heavy with M398P
# light: B1 light
# notes: as for B1
# B4: M103205H795-MY205/M103202L889-SK1 (antibody, human IgG1, kappa)
# heavy: B1 heavy with V241S, Q297L, M398P
# light: B1 light
# notes: also called MS1032LO06-MY205
# B5: M103205H795-MY199/M103202L889-SK1 (antibody, human IgG1, kappa)
# heavy: B1 heavy with V241S, D270E, M398P
# light: B1 light
# notes: as for B1
# B6: M103205H795-MY206/M103202L889-SK1 (antibody, human IgG1, kappa)
# heavy: B1 heavy with Q297L, M398P
# light: B1 light
# notes: as for B1
# B7: M103205H795-MY208/M103202L889-SK1 (antibody, human IgG1, kappa)
# heavy: B1 heavy with V241S, Q297L, K332A, M398P
# light: B1 light
# notes: as for B1
# B8: M103205H795-MY200/M103202L889-SK1 (antibody, human IgG1, kappa)
# heavy: B1 heavy with D270E, M398P
# light: B1 light
# notes: as for B1
# B9: M103205H795-MY207/M103202L889-SK1 (antibody, human IgG1, kappa)
# heavy: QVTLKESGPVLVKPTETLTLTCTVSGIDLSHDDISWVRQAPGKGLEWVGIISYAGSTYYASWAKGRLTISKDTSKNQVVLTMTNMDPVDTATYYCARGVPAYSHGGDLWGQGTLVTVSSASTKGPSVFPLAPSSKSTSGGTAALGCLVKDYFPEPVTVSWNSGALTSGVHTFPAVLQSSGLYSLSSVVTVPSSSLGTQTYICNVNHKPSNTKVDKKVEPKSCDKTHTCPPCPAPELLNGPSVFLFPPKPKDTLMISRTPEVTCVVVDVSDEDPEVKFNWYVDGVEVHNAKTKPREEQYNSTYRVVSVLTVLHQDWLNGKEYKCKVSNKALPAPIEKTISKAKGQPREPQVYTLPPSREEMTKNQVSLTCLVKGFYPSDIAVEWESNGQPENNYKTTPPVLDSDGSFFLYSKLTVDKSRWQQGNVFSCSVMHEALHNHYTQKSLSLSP
# light: B1 light
# notes: as for B1
# B10: M103205H795-MY201/M103202L889-SK1 (antibody, human IgG1, kappa)
# heavy: B1 heavy with V241S, M398P
# light: B1 light
# notes: also called MS1032LO06-MY201
# Target: T1, cynomolgus monkey FcγRIIa1 …
# Experiment: SPR (Biacore), antibody captured, FcgR analyte
# Description: (§1) The kinetic analysis of interactions between these antibodies and FcγR was carried out using BIACORE® T200 or BIACORE® 4000 (GE Healthcare). HBS-EP+ (GE Healthcare) was used as the running buffer, and the measurement temperature was set to 25° C. A chip produced by immobilizing Protein A. Protein A/G or mouse anti-human IgG kappa light chain (BD Biosciences) onto a Series S Sensor Chip CM4 or CM5 (GE Healthcare) by the amine-coupling method was used. […] After the measurement, the antibody captured on the chip was washed off by allowing reaction with 10 mM glycine-HCl, pH1.5 and 25 mM NaOH so that the chip was regenerated and used repeatedly. The sensorgrams obtained as measurement results were analyzed by the 1:1 Langmuir binding model using the BIACORE® Evaluation Software to calculate the binding rate constant ka (L/mol/s) and dissociation rate constant kd (l/s), and the dissociation constant KD (mol/L) was calculated from these values. […] Regarding such interactions, KD values were calculated using the following 1:1 binding model described in BIACORE® T100 Software Handbook BR1006-48 Edition AE.
# (§2) The behavior of interacting molecules according to the 1:1 binding model on BIACORE® can be described by Equation 1: Req=C·R max/(KD+C)+RI, wherein, Req is a plot of steady-state binding levels to analyte concentration. C is concentration, RI is bulk refractive index contribution in the sample, and Rmax is analyte binding capacity of the surface. When this equation is rearranged, KD can be expressed as Equation 2: KD=C·Rmax/(Req−RI)−C. KD can be calculated by substituting the values of Rmax, RI, and C into Equation 1 or Equation 2. From the current measurement conditions, RI=0, C=2 μmol/L can be used.
row,Kd,Binder
1,440 nM,B1
2,1300 nM,B2
3,860 nM,B3
4,900 nM,B4
5,19000 nM,B5
6,520 nM,B6
7,1200 nM,B7
8,1700 nM,B8
9,1500 nM,B9
10,14000 nM,B10

# Target: T2, cynomolgus monkey FcγRIIa2 …
# Experiment: SPR (Biacore), antibody captured, FcgR analyte
# Description: as §1, §2
row,Kd,Binder
1,350 nM,B1
2,1400 nM,B2
3,640 nM,B3
4,1100 nM,B4
5,2000 nM,B5
6,790 nM,B6
7,1500 nM,B7
8,1500 nM,B8
9,1400 nM,B9
10,1400 nM,B10

# Target: T3, cynomolgus monkey FcγRIIa3 …
# Experiment: SPR (Biacore), antibody captured, FcgR analyte
# Description: as §1, §2
row,Kd,Binder
1,1400 nM,B1
2,5200 nM,B2
3,22000 nM,B3
4,30000 nM,B4
5,12000 nM,B5
6,5000 nM,B6
7,5700 nM,B7
8,5000 nM,B8
9,69000 nM,B9
10,39000 nM,B10

# Target: T4, cynomolgus monkey FcγRIIb extracellular …
# Experiment: SPR (Biacore), antibody captured, FcgR analyte
# Description: as §1, §2
row,Kd,Binder
1,240 nM,B1
2,810 nM,B2
3,460 nM,B3
4,250 nM,B4
5,1100 nM,B5
6,450 nM,B6
7,640 nM,B7
8,1100 nM,B8
9,820 nM,B9
10,430 nM,B10

# Target: T5, cynomolgus monkey FcγRIIIaS …
# Experiment: SPR (Biacore), antibody captured, FcgR analyte
# Description: as §1, §2
row,Kd,Binder
1,2700 nM,B1
2,3500 nM,B2
3,4000 nM,B3
4,6000 nM,B4
5,4100 nM,B5
6,5300 nM,B6
7,2800 nM,B7
8,4400 nM,B8
9,4100 nM,B9
10,5700 nM,B10

# Target: T6, human FcγRIIaH extracellular domain, …
# Experiment: SPR (Biacore), antibody captured, FcgR analyte
# Description: as §1, §2
row,Kd,Binder
1,580 nM,B1
2,1300 nM,B2
3,12000 nM,B3
4,470 nM,B4
5,11000 nM,B5
6,1000 nM,B6
7,530 nM,B7
8,1700 nM,B8
9,13000 nM,B9
10,910 nM,B10

# Target: T7, human FcγRIIaR extracellular domain, …
# Experiment: SPR (Biacore), antibody captured, FcgR analyte
# Description: as §1, §2
row,Kd,Binder
1,800 nM,B1
2,2800 nM,B2
3,1200 nM,B3
4,1300 nM,B4
5,2800 nM,B5
6,1400 nM,B6
7,21000 nM,B7
8,27000 nM,B8
9,2800 nM,B9
10,1900 nM,B10

# Target: T8, human FcγRIIb extracellular domain, …
# Experiment: SPR (Biacore), antibody captured, FcgR analyte
# Description: as §1, §2
row,Kd,Binder
1,420 nM,B1
2,1300 nM,B2
3,710 nM,B3
4,560 nM,B4
5,1900 nM,B5
6,800 nM,B6
7,12000 nM,B7
8,1400 nM,B8
9,1600 nM,B9
10,1100 nM,B10

# Target: T9, human FcγRIIIaV extracellular domain, C-terminal His-tag (human, UniProt P08637 17-208)
# T9 construct: also called human FcgRIIIaV; FcgRIIIaV
# Experiment: SPR (Biacore), antibody captured, FcgR analyte
# Description: as §1, §2
# T9 sequence (P08637 17-208 F176V): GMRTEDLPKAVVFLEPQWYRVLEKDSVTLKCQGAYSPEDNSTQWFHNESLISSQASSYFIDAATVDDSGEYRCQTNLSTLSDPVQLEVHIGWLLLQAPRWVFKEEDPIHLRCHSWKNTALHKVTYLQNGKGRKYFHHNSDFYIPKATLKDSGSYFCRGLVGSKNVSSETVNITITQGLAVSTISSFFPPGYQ
row,Kd,Binder
1,8900 nM,B1
2,13000 nM,B2
3,9400 nM,B3
4,15000 nM,B4
5,15000 nM,B5
6,8200 nM,B6
7,10000 nM,B7
8,15000 nM,B8
9,8000 nM,B9
10,24000 nM,B10

# — US20200317768A1 (published 2020)
